Results: PMC6224480, “Insights into Kinesin-1 Activation from the Crystal Structure of KLC2 Bound to JIP3” (Structure(London, England:1993), 2018)
*: point of attachment. FITC = O=C1OC2(c3ccc(O)cc3Oc3cc(O)ccc32)c2ccc(NC(=S)*)cc21

What was measured:
Settings in all cases: both partners purified
KLC2^TPR-myc (wild type) [1] = molecular target: T1, KLC2^TPR-myc (wild type) (murine, UniProt O88448 190-479); experiment: fluorescence polarisation; FITC-LFP peptide (300 nM) with 2-fold dilutions of KLC2^TPR-myc; 0.1 M NaCl, 25 mM HEPES, 5 mM MgCl2, 1 mM TCEP, pH 7.5; 1 hour, room temperature; fluorescence anisotropy
T1 construct: kinesin light chain 2 (KLC2), murine, TPR domain, residues 191-480; also called KLC2^TPR-myc protein; source: E. coli BL21(DE3) Rosetta, purified (His-trap, ULP1 cleavage, SEC); not shown: His6-SUMO, N-terminal, cleaved
T1 sequence (O88448 190-479): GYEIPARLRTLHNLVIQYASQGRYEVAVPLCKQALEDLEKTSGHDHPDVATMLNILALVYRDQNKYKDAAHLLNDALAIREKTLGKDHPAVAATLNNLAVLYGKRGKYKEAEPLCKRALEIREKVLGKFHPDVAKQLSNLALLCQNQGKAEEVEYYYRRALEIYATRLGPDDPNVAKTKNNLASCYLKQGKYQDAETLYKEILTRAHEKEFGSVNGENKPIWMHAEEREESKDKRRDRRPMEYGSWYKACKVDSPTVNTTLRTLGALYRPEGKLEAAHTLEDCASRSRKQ

[2] = molecular target: T2, KLC2^TPR-myc Gln^223Lys mutant (murine, UniProt O88448 190-479, Gln^223Lys); experiment: ITC; wild-type or mutant KLC2^TPR-myc (44-50 μM) in the cell; Trp-JIP3^LZ (dimer 297-330 μM) or FITC-CSTN-WD2 peptide (380 μM) as titrant; 0.1 M NaCl, 25 mM HEPES, 1 mM TCEP, pH 7.5
T2 construct: kinesin light chain 2 (KLC2), murine, TPR domain, residues 191-480; source: E. coli BL21(DE3) Rosetta, purified (His-trap, ULP1 cleavage, SEC); not shown: His6-SUMO, N-terminal, cleaved
T2 sequence (O88448 other isoform, or with tags, fused parts or gaps Gln^223Lys | Gln^223Lys | mutant): as the sequence (O88448 190-479) above, with Q33K counted along it

[3] = molecular target: T3, KLC2^TPR-myc Tyr^208Ala mutant (murine, UniProt O88448 190-479, Tyr^208Ala); experiment: as above
T3 construct: kinesin light chain 2 (KLC2), murine, TPR domain, residues 191-480; source: E. coli BL21(DE3) Rosetta, purified (His-trap, ULP1 cleavage, SEC); not shown: His6-SUMO, N-terminal, cleaved
T3 sequence (O88448 other isoform, or with tags, fused parts or gaps Tyr^208Ala | Tyr^208Ala | mutant): as the sequence (O88448 190-479) above, with Y18A counted along it

KLC2^TPR-myc (wild type) [4] = molecular target: T1, KLC2^TPR-myc (wild type); experiment: as above
[5] = molecular target: T4, KLC2^TPR-myc Thr^200Asp mutant (murine, UniProt O88448 190-479, Thr^200Asp); experiment: as above
T4 construct: kinesin light chain 2 (KLC2), murine, TPR domain, residues 191-480; source: E. coli BL21(DE3) Rosetta, purified (His-trap, ULP1 cleavage, SEC); not shown: His6-SUMO, N-terminal, cleaved
T4 sequence (O88448 other isoform, or with tags, fused parts or gaps Thr^200Asp | Thr^200Asp | mutant): as the sequence (O88448 190-479) above, with T10D counted along it

[6] = molecular target: KLC2^TPR-myc third TPR1 mutant, printed as L220Y in Table S2 (mouse, UniProt O88448 191-480); experiment: ITC; FITC-CSTN-WD2 peptide as titrant (380 uM) into wild-type or mutant KLC2^TPR-myc (44-50 uM) in the cell; 25 C; 0.1 M NaCl, 25 mM HEPES, 1 mM TCEP, pH 7.5; 2-3 experiments globally fitted with the model A + B -> AB; apparent stoichiometry Napp
Chain of KLC2^TPR-myc third TPR1 mutant, printed as L220Y in Table S2 (O88448 other isoform, or with tags, fused parts or gaps L220Y): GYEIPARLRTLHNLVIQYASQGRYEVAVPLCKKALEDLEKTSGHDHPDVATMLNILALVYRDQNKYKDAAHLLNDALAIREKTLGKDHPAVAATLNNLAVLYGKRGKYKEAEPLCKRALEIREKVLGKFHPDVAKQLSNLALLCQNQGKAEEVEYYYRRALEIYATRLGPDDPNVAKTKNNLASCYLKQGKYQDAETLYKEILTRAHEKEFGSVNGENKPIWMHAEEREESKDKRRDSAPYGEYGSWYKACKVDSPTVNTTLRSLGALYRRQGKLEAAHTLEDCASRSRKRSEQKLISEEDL

KLC2^TPR-myc (wild type) [7] = molecular target: T1, KLC2^TPR-myc (wild type); experiment: fluorescence polarisation; competition: FITC-LFP peptide (300 nM) and KLC2^TPR-myc fixed at 21 μM, 2-fold serial dilutions of unlabelled CSTN-WD1 peptide or Trp-JIP3^LZ; 0.1 M NaCl, 25 mM HEPES, 5 mM MgCl2, 1 mM TCEP, pH 7.5; competitive inhibition model

B1: FITC-labeled KLC2 LFP motif peptide (FITC-DSLDDLFPNEDEQS-COOH) (peptide)
peptide: {FITC}-DSLDDLFPNEDEQS-OH
notes: LFP motif (KLC2 residues 167-169) of the acidic linker of kinesin light chain 2; also called FITC-LFP peptide; FITC-labelled LFP-motif peptide; source: synthetic peptide, bought: Biomatik
Kd (KLC2^TPR-myc (wild type) [1]): 37 µM

B2: FITC-labeled CSTN(WD2) peptide (FITC-TRQLEWDDSTL-COOH) (peptide)
peptide: {FITC}-TRQLEWDDSTL-OH
notes: tryptophan-acidic motif WD2 of calsyntenin-1; also called FITC-CSTN-WD2 peptide; tryptophan-acidic cargo peptide; source: synthetic peptide, bought: Biomatik
stoichiometry N [2]: ~0.7 | stoichiometry N [3]: ~0.7 | stoichiometry N (KLC2^TPR-myc (wild type) [4]): ~0.7 | stoichiometry N [5]: ~0.7

B3: FITC-labeled CSTN(WD2) peptide (FITC-TRQLEWDDSTL-COOH) (peptide)
peptide: {FITC}-TRQLEWDDSTL-OH
notes: tryptophan-acidic peptide (WD2 motif) derived from calsyntenin-1; also called FITC-CSTN-WD2 peptide; source: synthetic peptide; bought: Biomatik
Ka [6]: 739000 M⁻¹ | stoichiometry N [6]: 0.71

B4: N-terminally acetylated CSTN-WD1 peptide (Ac-GKENEMDWDDSALTITVN-COOH) (peptide)
peptide: Ac-GKENEMDWDDSALTITVN-OH
notes: tryptophan-acidic motif WD1 of calsyntenin-1; also called calsyntenin-1 peptide; tryptophan-acidic peptide; source: synthetic peptide (Peptide Synthesis Laboratory, Francis Crick Institute, UK)
Ki (KLC2^TPR-myc (wild type) [7]): 11.3 µM
